Experimental data reported in the RNAGym collection of RNA variant scans (doi:10.7554/elife.90254).

B1: LINE1-full (parent)
chain: UACGUAGGUGGUUUUCCCCUGAUAGUGCUAAGGGGGCCUGGAAGUUUGGACUGGGCAGAGCUCAACACAGCGUGGCAAAGUGGCUGUGGCUAGACUGCCUCUCUGGAUUCCUCGUCACUCAGCAGGGCAUCUCUGAGAGAAAUGCC

Variants of: B1
Assay: self-cleavage, relative activity (ratio to wild type); higher = more cleavage; in vitro, sequencing; the parent is a self-cleaving ribozyme

Row | Variant | self-cleavage
1 | UACGUAGGUGGUUUUCCCCUGAUAGUGCUAAGGGGGCCUGGAAGUUUGGACUGGGCAGAGCUCAACACAGCGGGGCAAAGUGGCUGUGGCUAGACUGCCUCUCUGGAUUCCUCGUCACUCAGCAGGGCAUCUCUGAGAGAAUUGCC [U73G A142U] | 0.61
2 | UACGUAGGUGGUUUUCCCCUGAUAGUGCUAAGGGGGCCUGGAUGUUUGGACUGGGCAGAGCUCAACACAGCGUGGCAAAGUGGCUGAGGCUAGACUGCCUCUCUGGAUUCCUCGUCACUCAGCAGGGCAUCUCUGAGAGAAAUGCC [A43U U87A] | 0.03
3 | UACGUAGGUGGUUUUCCCCUGAUAGUGCUAAGGGGGCCUGGAAGUUUGGACUGGGCAGAGCUCAACACAGCGUGGCAAAGUGGCUGUGGCUAGACUGCCUCUCUGGAUUCCUCGUCACUCAGCAGGGCAACUCUGUGAGAAAUGCC [U130A A136U] | 1.18
4 | UACGUAGGUGGUUUUCCCCUGAUAGUGCUAAGGGGGCCUGGAAGUAUGGACUGGGCAGAGCUCAACACAGCGUGGCAAGGUGGCUGUGGCUAGACUGCCUCUCUGGAUUCCUCGUCACUCAGCAGGGCAUCUCUGAGAGAAAUGCC [U46A A79G] | 1.06
5 | UACGUAGGUGGUUUUCCCCUGACAGUGCUAAGGGGGCCUGGAAGUUUGGACUGGGCAGAGCUCAACACAGCGUGGCAAAGUGGCUGUGGCUAGACUGCCUCUCUGGAUUCCUCGUCACUCAGCAGGGCAUCUCUGUGAGAAAUGCC [U23C A136U] | 1.19
6 | UACGUAGGUGGUUUUCCCCUGAUAGUGCUUAGGGGGCCUGGAAGUUUGGACUGGGCAGAGCUCAACACAGCGUGGCAAAGUGGCUGUGGCUAGACUGCCUCUCUGGAUUCCUCGUCGCUCAGCAGGGCAUCUCUGAGAGAAAUGCC [A30U A117G] | 2.32
7 | UACGUAGGUGGUUUACCCCUGAUAGUGCUAAGGGGGCCUGGAAGUUUGGACUGGGCAGAGCCCAACACAGCGUGGCAAAGUGGCUGUGGCUAGACUGCCUCUCUGGAUUCCUCGUCACUCAGCAGGGCAUCUCUGAGAGAAAUGCC [U15A U62C] | 0
8 | UACGUAGGUGGCUUUCCCCUGAUAGUGCUAAGGGGGCCUGGAAGUCUGGACUGGGCAGAGCUCAACACAGCGUGGCAAAGUGGCUGUGGCUAGACUGCCUCUCUGGAUUCCUCGUCACUCAGCAGGGCAUCUCUGAGAGAAAUGCC [U12C U46C] | 1.62
9 | UACGUAGGAGGUUUUCCCCUGAUAGUGCUAAGGGGGCCUGGAAGUUUGGACUGGGCAGAGCUCAACACAGCGUGGCAAAGUGGCUGUGGCUAGACUGCCUCUCUGGAUUCCCCGUCACUCAGCAGGGCAUCUCUGAGAGAAAUGCC [U9A U112C] | 1.32
10 | UACGUAGGUGGUUUUCCCCUGAUAGUGCUAAGGGGGCCUGGAAGUUUGGACUGGGCAGAGCUCAACACAGCGUGGCAAAGUGGCUAUGGCUAGACUGCCUCUCUGGAUUCCUCGUCACUCAGCAGUGCAUCUCUGAGAGAAAUGCC [G86A G126U] | 0.02
11 | UACGUAGGUGGUUUUCCCCUGAUAGUGCUAAGGGGGCCUGGAAGUUUGGACUGGGCAGAGCUCAACACAGCGUGGCAAAGUGGCUGUAGCUAGACUGCCUCUCUGGAUUCCUCGUCACUCAGCAGGGCAUCUCUGAGAGAGAUGCC [G88A A141G] | 0.08
12 | UACGUAGGUGGUUUUCCCCUGAUAGUGCUAAGGGGGCCUAGAAGUUUGGACUGGGCAGAGCUCAACACAGCGUGGCAAAGUGGCUGUAGCUAGACUGCCUCUCUGGAUUCCUCGUCACUCAGCAGGGCAUCUCUGAGAGAAAUGCC [G40A G88A] | 0.04
13 | UACGUAGGUGGUUUUCCCCUGAUAGUGCUAAGGCGGCCUGGAAGUUUGGACUGGGCAGAGCUCAACACAGCGUGGCAAAGUGGCUGUGGCUAGACUGCCUCUCUGGAUUCCUCGUCACUCAGCAGGGCACCUCUGAGAGAAAUGCC [G34C U130C] | 0.88
14 | UACGUAGGUGGUUUUCCCCUGAUAGUGCUAAGGGGGCCUGGAAGUUUGGACUGGGCAGAGCUCAACACAGCGUGGCAAAGUGGCUGUGGCUAGACUGCCUCUCUGGAUUCCUCGUCCCUCAGCAGGGCAUCUCUGAGAGAAGUGCC [A117C A142G] | 1.8
15 | UACGUAGGUGGUUUUCCCCUGAUAGUGCUAAGGGGGCCUGGAAGUUUGGACUGGGCAGAGCUCAACACAGCGUGGCAAAGUGGCUGUGGCUUGACUGCCUCUCUGGAUUCCUCGUCACUCAGCAGGGCAUCUCUGGGAGAAAUGCC [A92U A136G] | 0.94
16 | UACCUAGGUGGGUUUCCCCUGAUAGUGCUAAGGGGGCCUGGAAGUUUGGACUGGGCAGAGCUCAACACAGCGUGGCAAAGUGGCUGUGGCUAGACUGCCUCUCUGGAUUCCUCGUCACUCAGCAGGGCAUCUCUGAGAGAAAUGCC [G4C U12G] | 0.93
17 | UACGUAGGUGGUUUCCCCCUGAUAGUGCUAAGGGGGCCUGGAAGUUUGGACUGGGCAGAGUUCAACACAGCGUGGCAAAGUGGCUGUGGCUAGACUGCCUCUCUGGAUUCCUCGUCACUCAGCAGGGCAUCUCUGAGAGAAAUGCC [U15C C61U] | 0.05
18 | UACGUAGGUGGUUUCCCCCUGAUAGUGCUAAGGGGGCCUGGAAGUUUGGACUGGGCAGAGCUCAACACAGCGUGGCGAAGUGGCUGUGGCUAGACUGCCUCUCUGGAUUCCUCGUCACUCAGCAGGGCAUCUCUGAGAGAAAUGCC [U15C A77G] | 1.55
19 | UACGUAGGUGGUUUUCCCCUGAUAGUGCUAAGGGGGCCUGGAAGUUUGGACUGGGUAGAGCUCAACACAGCGUGGCAAAGUGGCUGUGGCUAGACUGCCUCUCUGGAUUCCUCGUCACUCAGCAGGGCAUCUCUGAGGGAAAUGCC [C56U A138G] | 0.31
20 | UACGUAGGUGGUUUUCCCCUGAUAGUGCUAAGGGGGCCUGGAAGUUUGGACUGGGCAGAGCUCAACACAGCGUGGCAAAGUGGCUGUGGCUAGACUGCCUCUCUGGAUUCCUCGUCACUCAGCAGGGCAUCUCGGAGAGGAAUGCC [U134G A140G] | 1.03

Row | Variant | self-cleavage
21 | UACGUAGGUGGUUUUCCCCUGAUAGUGCUAAGGGGGCCUGGAAGUUUGGACUGGGCAGAGCUCAGCACAGCGUGGCAAAGUGGCUGUGGCUAGACUGCCUCUCUGGAUUCCUCGUCACUCAGCAGGGCAUGUCUGAGAGAAAUGCC [A65G C131G] | 0.06
22 | UACGUAGGUGGUUUUCCCCUGAUAGUGCUAAGGGGGCCUGGAAGUUUGGACUGGGCGGAGCUCAACACAGCGUGGCAAAGUGGCUGUGGCUAGACUGCCUCUCUGGAUUCCUCGUCACUCAGCAGGGCAACUCUGAGAGAAAUGCC [A57G U130A] | 1.27
23 | UACGUAGGUGGUUUUCCCCUGAUAGUGCUAGGGGGGCCUGGAAGUUUGGACUGGGCAGAGCUCAACACAGCGUGGCAAAGUAGCUGUGGCUAGACUGCCUCUCUGGAUUCCUCGUCACUCAGCAGGGCAUCUCUGAGAGAAAUGCC [A31G G82A] | 2.09
24 | UACGUAGGUGGUUUUCCCCUGAUAGUGCUAAGGAGGCCUGGAAGUUUGGACUGGGCAGAGCUCAACACAGCGUGGCAAAGUGGCUGUGGCUAGACUGCCUCUCUGGUUUCCUCGUCACUCAGCAGGGCAUCUCUGAGAGAAAUGCC [G34A A107U] | 1.2
25 | UACGUAGGUGGUUUUCCCCUGAUAGUGCUAAGGGGGCCUGGAAGUUUGGACUGGGCAGAGCUCAACACAGCGUGGCAAAGUGGCUGUGGCUAGACUGCCUCUCUGGAUUACUCGUCACUCAGCAGGGCAUCUCUGAGAGGAAUGCC [C110A A140G] | 1.44
26 | CACGUAGGUGGUUUUCCCCUGAUAGUGCUAAGGGGGCCUGGAAGUUUGGACUGGGCAGAGCUUAACACAGCGUGGCAAAGUGGCUGUGGCUAGACUGCCUCUCUGGAUUCCUCGUCACUCAGCAGGGCAUCUCUGAGAGAAAUGCC [U1C C63U] | 0.24
27 | UACGUAGGUGGUUUUCCCCUGAUAGUGCUAAAGGGGCCUGGAAGUUUGGACUGGGCAGAGCUCGACACAGCGUGGCAAAGUGGCUGUGGCUAGACUGCCUCUCUGGAUUCCUCGUCACUCAGCAGGGCAUCUCUGAGAGAAAUGCC [G32A A64G] | 0.24
28 | UACGUAGGUGGUUUUCCCCUGAUAGUGCUAAGGGGGCCUGGAAGUUUGGACUGGGCAGAGCUCAACACAGCGUGGCAAAGUGGCUGUGGCUAGACUACCCCUCUGGAUUCCUCGUCACUCAGCAGGGCAUCUCUGAGAGAAAUGCC [G97A U100C] | 0.33
29 | UACGUAGGUGGUUUUCCCCUGGUAGUGCUAAGGGGGCCUGGAAGUUUGGACUGGGCAGAGCUCAACACAGCGUGGCAAAGUGGCUGUGGCUAGACUGCCUCUCUGGAUUCCACGUCACUCAGCAGGGCAUCUCUGAGAGAAAUGCC [A22G U112A] | 1.84
30 | UACGUAGGCGGUUUUCCCCUGAUAGUGCUAAGGGGGCCUGGAAGUUUGGACUGGGCAGAGCUCAACACAGCGUGGCAAAGUGGCUGUGGCUAGACUGCCUCACUGGAUUCCUCGUCACUCAGCAGGGCAUCUCUGAGAGAAAUGCC [U9C U102A] | 1.11
31 | UACGUAGGUGGUUUUCCCCUGAUAGUGCUAAGGGGGCCUGGAAGUUUGGACUGGGCAGAGCACAACACAGCGUGGCUAAGUGGCUGUGGCUAGACUGCCUCUCUGGAUUCCUCGUCACUCAGCAGGGCAUCUCUGAGAGAAAUGCC [U62A A77U] | 0.01
32 | UACGUAGGUGGUUUUCCCCUGAUAGUGCUAAGGGGGCCUGGAAGUUUGGACAGGGCAGAGCUCGACACAGCGUGGCAAAGUGGCUGUGGCUAGACUGCCUCUCUGGAUUCCUCGUCACUCAGCAGGGCAUCUCUGAGAGAAAUGCC [U52A A64G] | 0.31
33 | UACGUAGGUGGUUUUCCCCUGAUAGUGCUAAGGGGGCCAGGAAGUUUGGACUGGGCAGAGCUCAACACAGCGUGGCAAAGUGGCUGUGGCUAGACUGCCUCUCUGGAUUCCUCGUCACUCAGCAGGGCAUCUCUGAGAGAAAAGCC [U39A U143A] | 1.37
34 | UACGUAGGUGGUUUUCCCCUGAUAGUGCUAAGGGGGCCUGGAAGUUUGGACUGGGCAGAGCUCAACACAGCGUGGCAAAGUGGCUGUGGCUAGACUGCCUCUCUUGAUUCCUCGACACUCAGCAGGGCAUCUCUGAGAGAAAUGCC [G105U U115A] | 1.72
35 | UACGUAGCUGGUUGUCCCCUGAUAGUGCUAAGGGGGCCUGGAAGUUUGGACUGGGCAGAGCUCAACACAGCGUGGCAAAGUGGCUGUGGCUAGACUGCCUCUCUGGAUUCCUCGUCACUCAGCAGGGCAUCUCUGAGAGAAAUGCC [G8C U14G] | 1.39
36 | UACGAAGGUGGUUUUCCCCUGAUAGUGCUAAGGGGGCCUGGAAGUUUGGACUGGGCAGAGCUCAGCACAGCGUGGCAAAGUGGCUGUGGCUAGACUGCCUCUCUGGAUUCCUCGUCACUCAGCAGGGCAUCUCUGAGAGAAAUGCC [U5A A65G] | 0.08
37 | UACGUUGGUGGUUUUCCCCUGAUAGUGCUAAGGGGGCCUGGAAGUUUGGACUGGGCAGAGCUCAAUACAGCGUGGCAAAGUGGCUGUGGCUAGACUGCCUCUCUGGAUUCCUCGUCACUCAGCAGGGCAUCUCUGAGAGAAAUGCC [A6U C66U] | 0.09
38 | UACGUAGGUGGUUUUCCCCUGAUAGUGCUAAGGGGGCCUGGAAGUUUGGACUGGGCAGAGCUCAACACAGCGUGGCAAAGUGGCUGUGGCUAGACUGCCUCUCUGUAUUCCUCGUCACUCAGCAGGGCAUCUCUGUGAGAAAUGCC [G106U A136U] | 0.83
39 | UACGUAGGUGGUUUUCCCCUGAUAGUGCUAAGGGGGCCUGGUAGUUUGGACUGGGCAGAGCUCAACACAGCGUGGCAAAGUGGCUGUGGCUAGACUGCCUCUCUGGAUUCCUCGUCACUCAGCAGGGCUUCUCUGAGAGAAAUGCC [A42U A129U] | 0.86
